Target: ZMYND8 (UniProt Q9ULU4)
Assay: co-IP of Flag-ZMYND8 and Myc-EZH2
Conditions: reference: wild type; sites T487

- binding against the reference: weaker
Substance: EZH2 (from UniProt Q15910) T487A

From article PMC7923384
